Results taken from article PMC6195611.
Several values for one entry are separate records, joined by “and”; a condition that tells them apart may be missing. Equal values may be shown once. Values belong to the substance of their own block, whether it stands above or below them.

Legend:
[1] = biological target: K149N SAASoti (Stylocoeniella armata); test: SEC; Superdex 200 10/300 GL, 20 mM Tris-HCl 150 mM NaCl pH 7.5, 0.5 ml/min, absorbance at 280 and 509 nm (the legend of Fig. 2 gives Tris-HCl 100 mM, CaCl2 10 mM, pH 7.6); wild type also run with DTT
[2] = biological target: K149N SAASoti (Stylocoeniella armata); test: two-focus fluorescence correlation spectroscopy (2fFCS); diffusion coefficient; 10 mM phosphate buffer, 150 mM NaCl pH 7.4, ~10^-9 M protein, 25 °C
[3] = biological target: K149E SAASoti (Stylocoeniella armata); test: SEC; Superdex 200 10/300 GL, 20 mM Tris-HCl 150 mM NaCl pH 7.5, 0.5 ml/min, absorbance at 280 and 509 nm (the legend of Fig. 2 gives Tris-HCl 100 mM, CaCl2 10 mM, pH 7.6); wild type also run with DTT
[4] = biological target: K149E SAASoti (Stylocoeniella armata); test: two-focus fluorescence correlation spectroscopy (2fFCS); diffusion coefficient; 10 mM phosphate buffer, 150 mM NaCl pH 7.4, ~10^-9 M protein, 25 °C
[5] = biological target: K145N SAASoti (Stylocoeniella armata); test: SEC; Superdex 200 10/300 GL, 20 mM Tris-HCl 150 mM NaCl pH 7.5, 0.5 ml/min, absorbance at 280 and 509 nm (the legend of Fig. 2 gives Tris-HCl 100 mM, CaCl2 10 mM, pH 7.6); wild type also run with DTT
[6] = biological target: K145N SAASoti (Stylocoeniella armata); test: two-focus fluorescence correlation spectroscopy (2fFCS); diffusion coefficient; 10 mM phosphate buffer, 150 mM NaCl pH 7.4, ~10^-9 M protein, 25 °C
[7] = biological target: wild type SAASoti (Stylocoeniella armata); test: SEC; Superdex 200 10/300 GL, 20 mM Tris-HCl 150 mM NaCl pH 7.5, 0.5 ml/min, absorbance at 280 and 509 nm (the legend of Fig. 2 gives Tris-HCl 100 mM, CaCl2 10 mM, pH 7.6); wild type also run with DTT
[8] = biological target: V127T SAASoti (Stylocoeniella armata); test: SEC; V127T SAASoti at high concentration (0.22 mM)
[9] = biological target: K145E SAASoti (Stylocoeniella armata); test: SEC; Superdex 200 10/300 GL, 20 mM Tris-HCl 150 mM NaCl pH 7.5, 0.5 ml/min, absorbance at 280 and 509 nm (the legend of Fig. 2 gives Tris-HCl 100 mM, CaCl2 10 mM, pH 7.6); wild type also run with DTT

stoichiometry N [1]: 4 | stoichiometry N [2]: 4
Substance: K149N SAASoti (natural protein)

stoichiometry N [3]: 4 | stoichiometry N [4]: 4
Substance: K149E SAASoti (natural protein)

stoichiometry N [9]: 4
Substance: K145E SAASoti (natural protein)

Second part, the substance before the results:

Substance: K145N SAASoti (natural protein)
stoichiometry N [5]: 4 | stoichiometry N [6]: 4

Substance: wild type SAASoti (natural protein)
stoichiometry N [7]: 4 and 8

Substance: V127T SAASoti (natural protein)
stoichiometry N [8]: 2
